Measurements taken from patent US20220281980A1 (Bristol-Myers Squibb, published 2022).
Positions count from the first letter of the chain named.

T1: recombinant soluble human MICA*002 antigen (human, UniProt Q29983 24-307)
T1 construct: also called huIMICA-his allele *002
T1 chain: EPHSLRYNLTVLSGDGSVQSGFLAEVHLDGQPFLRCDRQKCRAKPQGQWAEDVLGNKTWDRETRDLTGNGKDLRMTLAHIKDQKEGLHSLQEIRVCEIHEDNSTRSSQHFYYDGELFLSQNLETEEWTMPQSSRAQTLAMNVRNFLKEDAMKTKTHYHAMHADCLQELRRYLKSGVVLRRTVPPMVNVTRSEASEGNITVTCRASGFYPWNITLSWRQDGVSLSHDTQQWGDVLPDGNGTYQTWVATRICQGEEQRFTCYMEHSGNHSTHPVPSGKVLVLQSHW

T2: recombinant soluble human MICA*009 antigen (human, UniProt Q29983 24-307)
T2 construct: also called huIMICA-his allele *009
T2 chain: T1 chain with G14W, C36Y, M129V, K173E, G175S, G206S, W210R, S215T

T3: recombinant soluble human MICA*004 antigen (human, UniProt Q29983 24-307)
T3 construct: also called huIMICA-his allele *004
T3 chain: T1 chain with G14W, C36Y, L122V, M129V, K173E, G175S, T181R, G206S, W210R, W216T

T4: recombinant soluble human MICA*008 antigen (human, UniProt Q29983 24-307)
T4 construct: also called huIMICA-his allele *008; recombinant soluble MICA (allele 8)
T4 chain: T1 chain with G14W, C36Y, M129V, K173E, G206S, W210R, T213I, S215T, Q251R

B1: MICA.2 (antibody, human IgG1, kappa, V domains shown)
VH: EVQLVESGGGLVQPGGSLRLSCAASGFTFSTYSMNWVRQAPGKGLEWVSYISYRSRTIYYADSVKGRFTISRDNARNSLYLQMNSLRDEDTAVYYCARWGYGSGGFDYWGQGTLVTVSS
VL: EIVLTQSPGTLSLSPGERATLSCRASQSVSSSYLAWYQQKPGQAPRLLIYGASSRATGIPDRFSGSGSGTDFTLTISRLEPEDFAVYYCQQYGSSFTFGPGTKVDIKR
notes: 3F5 variable regions on human IgG1f and human kappa constant regions, made in CHO-S cells; also called 3F5; recombinant antibody of 3F5
B2: 71C2 (antibody, V domains shown)
VH: EVQLVESGGGLVQPGRSLRLSCAASGFTFNNYAMHWVRQAPGKGLEWVSGITWNSDSIGYADSVKGRFTISRDNAKNSLYLQMNSLRAEDTALYYCAKDSVLLWFGGMDVWGQGTTVTVSS
VL: not shown
notes: Hybridoma antibody
B3: 19G6 (antibody, V domains shown)
VH: QVQLVESGGGVVQPGRSLRLSCAASGFTFSNYAMHWVRQAPGEGLEWVALIWYDGSNKFYGDSVKGRFTISRDNSKNTLYLQMNSLSAEDTAVYYCAREGSGHYWGQGTLVTVSS
VL: AIQLTQSPSSLSASVGDRVTITCRASQGISSALAWYQQKPGKVPKSLIYDASSLESGVPSRFSGSGSGTDFTLTISSLQPEDFATYYCQQFNSYPITFGQGTRLEIK
notes: Hybridoma antibody from human IgG transgenic mice, parent of MICA.36; also called 19G6 mAb; hybridoma 19G6
B4: MICA.36 (antibody, V domains shown)
VH: B3 VH
VL: B3 VL
notes: it says that the name implies no specific constant region; Radioiodinated in the Scatchard assay; also called MICA.36 antibody
B5: 24G11 (antibody, V domains shown)
VH: EVQLVQSGAEVKKPGESLKISCKGSGYSFTNYWIGWVRQMPGKGLEWLGIIHPGDSYTRYSPSFQGQVTISADKSISTAYLQWSSLKASDTAIYYCAREGIAATPFDYWGQGTLVTVSS
VL: EIVLTQSPATLSLSPGERATLSCRASQSVSSYLAWFQQKPGQAPRLLIYDASNRATGIPARFSGSGSGTDFTLTISSLEPEDFAVYYCQQRSNWPPTFGQGTKVEIK
notes: also called MICA.54; 24G11 (MICA.54)

Target: T1, recombinant soluble human MICA*002 …
Assay: SPR (Biacore 3000), antibody captured on Protein G chip, huMICA-his analyte
Description: (§1) Kinetics and affinity of anti-MICA/B antibodies MICA.2, 19G6, 16A5, and 71C2 towards human MICA alleles (huIMICA-his allele *002, *004, *008, and *009) were also determined on a BIACORE 3000® instrument using the following conditions: [0571] Running Buffer: HES-EP running buffer [0572] Chip: CM5 Protein G Chip Fc1: Blank. Fc2-4: ˜200Rus [0573] Ab: 5 ug/mL, 10 uL @ 10 uL/min [0574] Ag binding: 5 min association, 7 min dissociation @ 25 uL/min, [0575] Regeneration: Glycine 1.7, 10 uL @ 100 uL/min followed by 60s wash by HES-EP

Row | Kd [nM] | Binder
1 | 27.5 | B1
2 | 3010 | B2
3 | 219 | B3

Target: T2, recombinant soluble human MICA*009 …
Assay: as above
Description: as §1

Row | Kd [nM] | Binder
4 | 61.5 | B1
5 | 1400 | B2
6 | 13.7 | B3

Target: T3, recombinant soluble human MICA*004 …
Assay: as above
Description: as §1

Row | Kd [nM] | Binder
7 | 54.6 | B1
8 | 262 | B2
9 | 9.78 | B3

Target: T4, recombinant soluble human MICA*008 …
Assay: as above
Description: as §1

Row | Kd [nM] | Binder
10 | 40.5 | B1
11 | 39.9 | B2
12 | 5.23 | B3

Target: T4, recombinant soluble human MICA*008 …
Assay: BLI (Octet) sandwich binning on soluble MICA allele 8, row antibody captured; competitor (second antibody): MICA.40
Description: (§2) The binning experiments were performed on an Octet HTX instrument at 25° C. in HEPES buffered saline (10 mM HEPES pH 7.4, 150 mM NaCl, 0.05% v/v surfactant P20, and 1 mg/mL BSA). Anti-MICA/B antibodies and NKG2D-mFc were captured on anti-Fc tips and remaining capture sites were blocked with an excess of negative control IgG. Recombinant soluble MICA (allele 8) was bound and subsequent binding (“sandwiching”) of anti-MICA/B antibodies was tested.

Row | simultaneous binding (0 = no, 1 = yes) | Binder
13 | 0 | B1
14 | 1 | B4
15 | 1 | B5

Target: T1, recombinant soluble human MICA*002 …
Assay: SPR (Biacore 3000), antibody captured on Protein G chip, huMICA-his analyte; power of ten not given
Description: as §1

Row | koff [s⁻¹] | Binder
16 | 0.0104 | B1
17 | 0.0116 | B2
18 | 8.14 | B3

Target: T2, recombinant soluble human MICA*009 …
Assay: as above
Description: as §1

Row | koff [s⁻¹] | Binder
19 | 0.0232 | B1
20 | 0.0325 | B2
21 | 2.15 | B3

Target: T3, recombinant soluble human MICA*004 …
Assay: as above
Description: as §1

Row | koff [s⁻¹] | Binder
22 | 0.0284 | B1
23 | 0.0303 | B2
24 | 2.28 | B3

Target: T4, recombinant soluble human MICA*008 …
Assay: as above
Description: as §1

Row | koff [s⁻¹] | Binder
25 | 0.0246 | B1
26 | 0.0109 | B2
27 | 1.87 | B3

Target: T4, recombinant soluble human MICA*008 …
Assay: BLI (Octet) sandwich binning on soluble MICA allele 8, row antibody captured; competitor (second antibody): MICA.36
Description: as §2

Row | simultaneous binding (0 = no, 1 = yes) | Binder
28 | 1 | B1
29 | 0 | B4
30 | 0 | B5

Target: T4, recombinant soluble human MICA*008 …
Assay: BLI (Octet) sandwich binning on soluble MICA allele 8, row antibody captured; competitor (second antibody): MICA.2
Description: as §2

Row | simultaneous binding (0 = no, 1 = yes) | Binder
31 | 0 | B1
32 | 1 | B4
33 | 1 | B5

Target: T4, recombinant soluble human MICA*008 …
Assay: BLI (Octet) sandwich binning on soluble MICA allele 8, row antibody captured; competitor (second antibody): 24G11
Description: as §2

Row | simultaneous binding (0 = no, 1 = yes) | Binder
34 | 1 | B1
35 | 0 | B4
36 | 0 | B5
